Data reported in patent publication US20250333512A1.

What was measured:
Assay in all cases: cell-based or functional assay
Parameters in all cases: AUC (IL-2 ELISA): unit not given beside the values
[1] = biological target: chimeric receptor containing a rhesus macaque FcγRIIB ectodomain and the CD3ζ intracellular signaling domain (rhesus macaque)
[2] = biological target: chimeric receptor containing a rhesus macaque FcγRIII ectodomain and the CD3ζ intracellular signaling domain (rhesus macaque) (UniProt A3RFZ7)
[3] = biological target: chimeric receptor containing a rhesus macaque FcγRI ectodomain and the CD3ζ intracellular signaling domain (rhesus macaque)
[4] = biological target: chimeric receptor containing a rhesus macaque FcγRIIA ectodomain and the CD3ζ intracellular signaling domain (rhesus macaque)

Chain of PGT121 (Mammalian) (antibody) (heavy): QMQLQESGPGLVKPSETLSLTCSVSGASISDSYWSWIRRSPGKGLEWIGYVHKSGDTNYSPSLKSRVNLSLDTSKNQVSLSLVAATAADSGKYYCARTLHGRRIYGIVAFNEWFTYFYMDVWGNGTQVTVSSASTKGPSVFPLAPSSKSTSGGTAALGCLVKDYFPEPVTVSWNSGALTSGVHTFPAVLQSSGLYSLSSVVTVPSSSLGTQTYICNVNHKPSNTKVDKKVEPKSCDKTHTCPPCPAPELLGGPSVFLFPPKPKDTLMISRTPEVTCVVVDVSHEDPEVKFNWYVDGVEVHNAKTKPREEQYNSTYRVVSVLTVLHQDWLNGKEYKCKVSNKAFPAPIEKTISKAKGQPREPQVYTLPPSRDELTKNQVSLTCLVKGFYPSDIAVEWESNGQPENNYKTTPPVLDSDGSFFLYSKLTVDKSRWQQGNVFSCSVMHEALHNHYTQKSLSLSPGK
Chain of PGT121 (Mammalian) (antibody) (light): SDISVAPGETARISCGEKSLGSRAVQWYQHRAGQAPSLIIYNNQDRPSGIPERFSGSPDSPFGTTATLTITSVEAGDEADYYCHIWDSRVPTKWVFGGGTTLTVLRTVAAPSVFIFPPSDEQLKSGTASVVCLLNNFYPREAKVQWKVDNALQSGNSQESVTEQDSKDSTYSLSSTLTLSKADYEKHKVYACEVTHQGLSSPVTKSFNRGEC
Chain of chimeric receptor containing a rhesus macaque FcγRIII ectodomain and the CD3ζ intracellular signaling domain (rhesus macaque) (A3RFZ7 whole entry, change not shown, the tested form may be a part): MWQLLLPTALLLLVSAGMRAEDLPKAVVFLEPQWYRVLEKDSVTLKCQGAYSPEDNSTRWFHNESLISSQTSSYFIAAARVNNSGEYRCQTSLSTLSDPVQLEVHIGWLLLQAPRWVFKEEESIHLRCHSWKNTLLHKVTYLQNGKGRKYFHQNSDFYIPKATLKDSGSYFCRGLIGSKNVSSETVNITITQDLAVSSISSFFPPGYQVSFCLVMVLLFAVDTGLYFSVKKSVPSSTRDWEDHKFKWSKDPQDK

Nb PGT121-KDEL (antibody)
AUC (IL-2 ELISA) [1]: 0.4 | EC50 (IL-2 ELISA) [1]: > 50 µg/mL | AUC (IL-2 ELISA) [2]: 0.934 | EC50 (IL-2 ELISA) [2]: 3.57 µg/mL | AUC (IL-2 ELISA) [3]: 4.46 | EC50 (IL-2 ELISA) [3]: 0.548 µg/mL | AUC (IL-2 ELISA) [4]: 0.401 | EC50 (IL-2 ELISA) [4]: > 50 µg/mL

PGT121 (Mammalian) (antibody)
AUC (IL-2 ELISA) [1]: 0.636 | EC50 (IL-2 ELISA) [1]: 3.58 µg/mL | AUC (IL-2 ELISA) [3]: 3.55 | EC50 (IL-2 ELISA) [3]: 0.619 µg/mL | AUC (IL-2 ELISA) [4]: 3.74 | EC50 (IL-2 ELISA) [4]: 1.72 µg/mL

VRC07-523-LS(Mammalian) (antibody)
AUC (IL-2 ELISA) [1]: 1.36 | EC50 (IL-2 ELISA) [1]: 1.95 µg/mL | AUC (IL-2 ELISA) [2]: 1.82 | EC50 (IL-2 ELISA) [2]: 0.637 µg/mL | AUC (IL-2 ELISA) [3]: 4.37 | EC50 (IL-2 ELISA) [3]: 0.303 µg/mL | AUC (IL-2 ELISA) [4]: 4.5 | EC50 (IL-2 ELISA) [4]: 0.853 µg/mL

Nb PGT121-YTE (antibody)
AUC (IL-2 ELISA) [1]: 0.256 | EC50 (IL-2 ELISA) [1]: > 50 µg/mL | AUC (IL-2 ELISA) [2]: 0.226 | EC50 (IL-2 ELISA) [2]: > 50 µg/mL | AUC (IL-2 ELISA) [3]: 3.99 | EC50 (IL-2 ELISA) [3]: 0.735 µg/mL | AUC (IL-2 ELISA) [4]: 0.246 | EC50 (IL-2 ELISA) [4]: > 50 µg/mL

VRC07-523 (Mammalian) (antibody)
AUC (IL-2 ELISA) [1]: 1.26 | EC50 (IL-2 ELISA) [1]: 2.1 µg/mL | AUC (IL-2 ELISA) [2]: 1.46 | EC50 (IL-2 ELISA) [2]: 1.21 µg/mL | AUC (IL-2 ELISA) [3]: 4.14 | EC50 (IL-2 ELISA) [3]: 0.326 µg/mL | AUC (IL-2 ELISA) [4]: 4.15 | EC50 (IL-2 ELISA) [4]: 0.722 µg/mL

Nb VRC01-KDEL (antibody)
AUC (IL-2 ELISA) [1]: 0.355 | EC50 (IL-2 ELISA) [1]: > 50 µg/mL | AUC (IL-2 ELISA) [2]: 0.37 | EC50 (IL-2 ELISA) [2]: > 50 µg/mL | AUC (IL-2 ELISA) [3]: 4.69 | EC50 (IL-2 ELISA) [3]: 0.419 µg/mL | AUC (IL-2 ELISA) [4]: 0.334 | EC50 (IL-2 ELISA) [4]: > 50 µg/mL
